The labels stand for the following.
B1: GpH7-A5/GpH7-B3 variant P331_13S/GpL16-k0 (antibody, human IgG1, kappa)
heavy 1: not shown
heavy 2: not shown
light: DIVMTQSPLSLPVTPGEPASISCQASESLVHSNRNTYLHWYLQKPGQSPQLLIYKVSNRFSGVPDRFSGSGSGTDFTLKISRVEAEDVGVYYCSQNTHVPPTFGQGTKVEIERTVAAPSVFIFPPSDEQLKSGTASVVCLLNNFYPREAKVQWKVDNALQSGNSQESVTEQDSKDSTYSLSSTLTLSKADYEKHKVYACEVTHQGLSSPVTKSFNRGEC
notes: heterodimerized antibody, mutation in one H chain only; also called He Ab
B2: GpH7-A5/GpH7-B3 variant P331_06M/GpL16-k0 (antibody, human IgG1, kappa)
heavy 1: not shown
heavy 2: not shown
light: B1 light
notes: as for B1
B3: GpH7-A5/GpH7-B3 variant S337_04F/GpL16-k0 (antibody, human IgG1, kappa)
heavy 1: not shown
heavy 2: not shown
light: B1 light
notes: as for B1
B4: GpH7-A5/GpH7-B3 variant S337_09D/GpL16-k0 (antibody, human IgG1, kappa)
heavy 1: not shown
heavy 2: not shown
light: B1 light
notes: as for B1
B5: GpH7-A5/GpH7-B3 variant T335_10E/GpL16-k0 (antibody, human IgG1, kappa)
heavy 1: not shown
heavy 2: not shown
light: B1 light
notes: as for B1
B6: GpH7-A5/GpH7-B3 variant S337_06M/GpL16-k0 (antibody, human IgG1, kappa)
heavy 1: not shown
heavy 2: not shown
light: B1 light
notes: as for B1
B7: GpH7-A5/GpH7-B3 variant P331_07I/GpL16-k0 (antibody, human IgG1, kappa)
heavy 1: not shown
heavy 2: not shown
light: B1 light
notes: as for B1
B8: GpH7-A5/GpH7-B3 variant P331_14T/GpL16-k0 (antibody, human IgG1, kappa)
heavy 1: not shown
heavy 2: not shown
light: B1 light
notes: as for B1
B9: GpH7-A5/GpH7-B3 variant T335_15Y/GpL16-k0 (antibody, human IgG1, kappa)
heavy 1: not shown
heavy 2: not shown
light: B1 light
notes: as for B1
B10: GpH7-A5/GpH7-B3 variant S337_20W/GpL16-k0 (antibody, human IgG1, kappa)
heavy 1: not shown
heavy 2: not shown
light: B1 light
notes: as for B1
B11: GpH7-A5/GpH7-B3 variant Q295_06M/GpL16-k0 (antibody, human IgG1, kappa)
heavy 1: not shown
heavy 2: not shown
light: B1 light
notes: as for B1
B12: GpH7-A5/GpH7-B3 variant T335_07I/GpL16-k0 (antibody, human IgG1, kappa)
heavy 1: not shown
heavy 2: not shown
light: B1 light
notes: as for B1
B13: GpH7-A5/GpH7-B3 variant S239_06M/GpL16-k0 (antibody, human IgG1, kappa)
heavy 1: not shown
heavy 2: not shown
light: B1 light
notes: as for B1
B14: GpH7-A5/GpH7-B3 variant S239_07I/GpL16-k0 (antibody, human IgG1, kappa)
heavy 1: not shown
heavy 2: not shown
light: B1 light
notes: as for B1
B15: GpH7-A5/GpH7-B3 variant S239_14T/GpL16-k0 (antibody, human IgG1, kappa)
heavy 1: not shown
heavy 2: not shown
light: B1 light
notes: as for B1
B16: GpH7-A5/GpH7-B3 variant T335_13S/GpL16-k0 (antibody, human IgG1, kappa)
heavy 1: not shown
heavy 2: not shown
light: B1 light
notes: as for B1
B17: GpH7-A5/GpH7-B3 variant P331_10E/GpL16-k0 (antibody, human IgG1, kappa)
heavy 1: not shown
heavy 2: not shown
light: B1 light
notes: as for B1
B18: GpH7-A5/GpH7-B3 variant S239_05P/GpL16-k0 (antibody, human IgG1, kappa)
heavy 1: not shown
heavy 2: not shown
light: B1 light
notes: as for B1
B19: GpH7-A5/GpH7-B3 variant S337_18N/GpL16-k0 (antibody, human IgG1, kappa)
heavy 1: not shown
heavy 2: not shown
light: B1 light
notes: as for B1
B20: GpH7-A5/GpH7-B3 variant P331_09D/GpL16-k0 (antibody, human IgG1, kappa)
heavy 1: not shown
heavy 2: not shown
light: B1 light
notes: as for B1
B21: GpH7-A5/GpH7-B3 variant T335_02A/GpL16-k0 (antibody, human IgG1, kappa)
heavy 1: not shown
heavy 2: not shown
light: B1 light
notes: as for B1
B22: GpH7-A5/GpH7-B3 variant S337_10E/GpL16-k0 (antibody, human IgG1, kappa)
heavy 1: not shown
heavy 2: not shown
light: B1 light
notes: as for B1
B23: GpH7-A5/GpH7-B3 variant P331_18N/GpL16-k0 (antibody, human IgG1, kappa)
heavy 1: not shown
heavy 2: not shown
light: B1 light
notes: as for B1
B24: GpH7-A5/GpH7-B3 variant Q295_10E/GpL16-k0 (antibody, human IgG1, kappa)
heavy 1: not shown
heavy 2: not shown
light: B1 light
notes: as for B1
B25: GpH7-A5/GpH7-B3 variant S337_08L/GpL16-k0 (antibody, human IgG1, kappa)
heavy 1: not shown
heavy 2: not shown
light: B1 light
notes: as for B1
B26: GpH7-A5/GpH7-B3 variant S337_07I/GpL16-k0 (antibody, human IgG1, kappa)
heavy 1: not shown
heavy 2: not shown
light: B1 light
notes: as for B1
B27: GpH7-A5/GpH7-B3 variant T335_05P/GpL16-k0 (antibody, human IgG1, kappa)
heavy 1: not shown
heavy 2: not shown
light: B1 light
notes: as for B1
B28: GpH7-A5/GpH7-B3 variant T335_16H/GpL16-k0 (antibody, human IgG1, kappa)
heavy 1: not shown
heavy 2: not shown
light: B1 light
notes: as for B1
B29: GpH7-A5/GpH7-B3 variant P331_08L/GpL16-k0 (antibody, human IgG1, kappa)
heavy 1: not shown
heavy 2: not shown
light: B1 light
notes: as for B1
B30: GpH7-A5/GpH7-B3 variant S337_16H/GpL16-k0 (antibody, human IgG1, kappa)
heavy 1: not shown
heavy 2: not shown
light: B1 light
notes: as for B1
B31: GpH7-A5/GpH7-B3 variant S337_15Y/GpL16-k0 (antibody, human IgG1, kappa)
heavy 1: not shown
heavy 2: not shown
light: B1 light
notes: as for B1
B32: GpH7-A5/GpH7-B3 variant S337_03V/GpL16-k0 (antibody, human IgG1, kappa)
heavy 1: not shown
heavy 2: not shown
light: B1 light
notes: as for B1
B33: GpH7-A5/GpH7-B3 variant T335_01G/GpL16-k0 (antibody, human IgG1, kappa)
heavy 1: not shown
heavy 2: not shown
light: B1 light
notes: as for B1
B34: GpH7-A5/GpH7-B3 variant T335_12R/GpL16-k0 (antibody, human IgG1, kappa)
heavy 1: not shown
heavy 2: not shown
light: B1 light
notes: as for B1
B35: GpH7-A5/GpH7-B3 variant S337_11K/GpL16-k0 (antibody, human IgG1, kappa)
heavy 1: not shown
heavy 2: not shown
light: B1 light
notes: as for B1
B36: GpH7-A5/GpH7-B3 variant S337_12R/GpL16-k0 (antibody, human IgG1, kappa)
heavy 1: not shown
heavy 2: not shown
light: B1 light
notes: as for B1
B37: GpH7-A5/GpH7-B3 variant S337_19Q/GpL16-k0 (antibody, human IgG1, kappa)
heavy 1: not shown
heavy 2: not shown
light: B1 light
notes: as for B1
B38: GpH7-A5/GpH7-B3 variant Y300_01G/GpL16-k0 (antibody, human IgG1, kappa)
heavy 1: not shown
heavy 2: not shown
light: B1 light
notes: position is EU numbering; also called He Ab
B39: GpH7-A5/GpH7-B3 variant Y300_13S/GpL16-k0 (antibody, human IgG1, kappa)
heavy 1: not shown
heavy 2: not shown
light: B1 light
notes: as for B38
B40: GpH7-A5/GpH7-B3 variant Y300_08L/GpL16-k0 (antibody, human IgG1, kappa)
heavy 1: not shown
heavy 2: not shown
light: B1 light
notes: as for B38
B41: GpH7-A5/GpH7-B3 variant Y300_07I/GpL16-k0 (antibody, human IgG1, kappa)
heavy 1: not shown
heavy 2: not shown
light: B1 light
notes: as for B38
B42: GpH7-A5/GpH7-B3 variant Y300_14T/GpL16-k0 (antibody, human IgG1, kappa)
heavy 1: not shown
heavy 2: not shown
light: B1 light
notes: as for B38

The first experiment deals with T1, FcγRIIa R (human FcγRIIa, allotype R, Arg at position 131), extracellular domain with C-terminal His tag (human, UniProt P12318 34-217).
T1 construct: extracellular domain; expressed in FreeStyle293 cells; analyte in Biacore; also called 2aR; FcgRIIa R
T1 sequence (looked up): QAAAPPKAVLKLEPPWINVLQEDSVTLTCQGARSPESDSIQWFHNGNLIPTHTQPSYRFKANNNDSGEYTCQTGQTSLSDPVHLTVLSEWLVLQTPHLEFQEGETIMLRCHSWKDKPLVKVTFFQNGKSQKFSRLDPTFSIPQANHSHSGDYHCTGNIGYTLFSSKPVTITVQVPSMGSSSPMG
In words: SPR (Biacore), relative binding vs GpH7-A5/GpH7-B3/GpL16-k0. The procedure: Analysis of interaction between objective antibody and the FcγR was carried out using Biacore T100 (GE Healthcare). HBS-EP+ (GE Healthcare) was used as the running buffer, and the measurement temperature was set to 25° C. Chips produced by immobilizing the antigen peptide by the amine coupling method to a Series S Sencor Chip CM5 (GE Healthcare), or alternatively, chips produced by allowing preliminarily biotinylated antigen peptides to interact with and immobilize onto a Series S Sensor Chip SA (certified) (GE Healthcare) were used. Antibodies of interest were captured onto an antigen peptide-immobilized chip, and allowed to interact to each FcγR diluted with running buffer. To regenerate and repeatedly use the chip, the antibodies captured on the chip were washed off by reacting 10 mM glycine-HCl, pH 1.5.
The FcγR-binding activity of each antibody was assessed primarily using as an indicator the FcγR-binding activity and dissociation constant for FcγR.
On the technique in general: SPR reads the build-up and loss of mass on a sensor chip optically.
For the molecule B1, the He/Con_2aR is 105 relative, control = 100.
On the same count and under the same terms, the value for B2 was 106 relative, control = 100.
Still for that read-out and setting: under B3 stands 105 relative, control = 100; under B4, 115 relative, control = 100; under B5, 111 relative, control = 100.
The same measure, in the same setting: under B6 stands 105 relative, control = 100.
In the case of B7, the He/Con_2aR is 110 relative, control = 100.
Same read-out and setting: under B8 stands 104 relative, control = 100; under B9, 111 relative, control = 100.
Still for that read-out and setting: the value for B10 was 110 relative, control = 100; that for B11 was 102 relative, control = 100.
Still for that read-out and setting: the value for B12 was 109 relative, control = 100; that for B13 was 101 relative, control = 100.
Regarding B14, the He/Con_2aR is 102 relative, control = 100.
Take B15: the He/Con_2aR is 103 relative, control = 100.
As for B16, the He/Con_2aR is 110 relative, control = 100.
For B17, the He/Con_2aR is 113 relative, control = 100.
As to B18, the He/Con_2aR is 106 relative, control = 100.
B19: the He/Con_2aR is 107 relative, control = 100.
Same read-out and setting: the value for B20 was 102 relative, control = 100.
Still for that read-out and setting: under B21 stands 102 relative, control = 100; under B22, 112 relative, control = 100.
The same measure, in the same setting: the value for B23 was 105 relative, control = 100; that for B24 was 102 relative, control = 100; that for B25 was 107 relative, control = 100.
In the case of B26, the He/Con_2aR is 109 relative, control = 100.
The same measure, in the same setting: the value for B27 was 104 relative, control = 100; that for B28 was 108 relative, control = 100.
B29: the He/Con_2aR is 102 relative, control = 100.
B30: the He/Con_2aR is 109 relative, control = 100.
B31: the He/Con_2aR was 105 relative, control = 100.
Take B32: the He/Con_2aR was 106 relative, control = 100.
For B33, the He/Con_2aR is 104 relative, control = 100.
Still for that read-out and setting: under B34 stands 100 relative, control = 100; under B35, 103 relative, control = 100.
Take B36: the He/Con_2aR was 107 relative, control = 100.
Turning to B37, the He/Con_2aR is 106 relative, control = 100.

In the next experiment the target is T2, FcγRIIIa extracellular domain with C-terminal His tag (human, UniProt P08637 17-208).
T2 construct: extracellular domain; also called FcgRIIIa; 3a; not shown: His tag at the C terminus
T2 sequence (P08637 17-208): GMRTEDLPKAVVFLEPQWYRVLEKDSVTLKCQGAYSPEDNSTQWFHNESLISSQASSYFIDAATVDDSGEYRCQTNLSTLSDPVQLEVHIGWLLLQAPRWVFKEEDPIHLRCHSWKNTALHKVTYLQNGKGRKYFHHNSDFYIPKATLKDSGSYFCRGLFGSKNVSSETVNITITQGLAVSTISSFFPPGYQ
Nature of the experiment: SPR (Biacore); ratio of He/Con_3a (FcγRIIIa) to He/Con_2b (FcγRIIb). Summed up:
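Antibodies with one altered H chain, captured on antigen-peptide chips, were tested against activating and inhibitory FcγRs by SPR. Running buffer HBS-EP+, 25 °C; 10 mM glycine-HCl, pH 1.5 regenerated the surface.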
On to B38, for which the “He_3a/2b (IIIa/IIb)” value is 1.69 ratio.
Turning to B39, the “He_3a/2b (IIIa/IIb)” value stood at 1.37 ratio.
On to B40, for which the “He_3a/2b (IIIa/IIb)” value was found to be 1.43 ratio.
Still for that read-out and setting: the value for B41 was 1.28 ratio.
Same read-out and setting: under B42 stands 1.53 ratio.

A further experiment concerns the target T3, FcγRIIb extracellular domain with C-terminal His tag (human, UniProt P31994 43-217).
T3 construct: extracellular domain; also called FcgRIIb; 2b; not shown: His tag at the C terminus
T3 sequence (looked up): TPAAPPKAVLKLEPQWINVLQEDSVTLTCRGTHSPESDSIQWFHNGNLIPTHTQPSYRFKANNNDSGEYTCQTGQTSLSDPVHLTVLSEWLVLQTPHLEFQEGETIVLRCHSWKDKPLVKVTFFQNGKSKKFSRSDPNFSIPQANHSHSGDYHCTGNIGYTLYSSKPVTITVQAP
Nature of the experiment: SPR (Biacore), antibody captured, FcγR as analyte; He Ab binding / GpH7-A5/GpH7-B3/GpL16-k0 binding x 100.
Regarding B38, the “He/Con_2b (IIb binding)” value is 48.4 relative, control = 100.
For the molecule B39, the “He/Con_2b (IIb binding)” value is 53.9 relative, control = 100.
Still for that read-out and setting: the value for B40 was 73.6 relative, control = 100; that for B41 was 74.5 relative, control = 100.
The same measure, in the same setting: under B42 stands 55.6 relative, control = 100.

The target in another experiment is T2, FcγRIIIa extracellular domain with …. The experiment is described as above.
As for B38, the “He/Con_3a (IIIa binding)” value was 81.6 relative, control = 100.
Still for that read-out and setting: the value for B39 was 73.9 relative, control = 100.
The same measure, in the same setting: under B40 stands 105 relative, control = 100; under B41, 95.1 relative, control = 100.
Still for that read-out and setting: under B42 stands 85.4 relative, control = 100.

The record behind these values is patent US20180155451A1 (published 2018).
